Measurements reported in paper doi:10.1101/2025.08.13.670189.

Assays:
Test in all cases: EMSA
[1] = molecular target: T1, LigR2 (Pseudomonas putida KT2440) (UniProt Q88JP8)
T1 sequence: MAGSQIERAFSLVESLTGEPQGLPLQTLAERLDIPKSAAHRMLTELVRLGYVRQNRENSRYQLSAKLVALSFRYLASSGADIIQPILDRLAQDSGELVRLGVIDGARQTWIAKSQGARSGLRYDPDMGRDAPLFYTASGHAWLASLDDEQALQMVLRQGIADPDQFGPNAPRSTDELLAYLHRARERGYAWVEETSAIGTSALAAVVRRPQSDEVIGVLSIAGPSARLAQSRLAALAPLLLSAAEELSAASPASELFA

[2] = molecular target: T2, LigR1 (Pseudomonas putida KT2440) (UniProt Q88JP0)
T2 sequence: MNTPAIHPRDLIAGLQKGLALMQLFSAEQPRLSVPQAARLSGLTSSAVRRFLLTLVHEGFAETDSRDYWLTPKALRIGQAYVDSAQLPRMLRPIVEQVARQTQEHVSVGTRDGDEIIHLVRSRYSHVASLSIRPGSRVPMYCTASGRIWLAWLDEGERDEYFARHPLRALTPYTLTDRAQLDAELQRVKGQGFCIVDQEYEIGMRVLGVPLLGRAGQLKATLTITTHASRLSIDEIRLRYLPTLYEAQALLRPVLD

[3] = system: LigR1 (Pseudomonas putida KT2440)
[4] = system: LigR2 (Pseudomonas putida KT2440)

Substance	Kd [1]	binding [2]	Kd [3]	Kd [4]
GGTAATGCTGCCGGCCCATGATGCCGGCGCCAATCAAGGCAATACGAAGGGGTGCGTTCAACAGCCTGTCCTCTTGTCATTGTTGTTATGAAATTCTGAAACCGGGTTCCAAAATTCATACTCGACAATTTAGAACCAAGTTCAGCTTTTCAGAAGAACGGGCGCAACAGACTGTGCGGTAATCGACCGGAATATTCCCTCAGGCAAACAGCTCGCTGGCGGGACTGGCCGCCGACAGCTCTTCTGC (double strand) [lig2 intergenic region probe]	150 nM	no binding		
lig1 intergenic region probe			220 nM	21600 nM
lig2 intergenic region probe				150 nM
